The text below walks through data of article PMC4486954, “Highly homologous proteins exert opposite biological activities by using different interaction interfaces” (Scientific Reports, 2015).

The target of one experiment is T1, HLT-iASPP Pro (human, UniProt Q8WUF5 1-602).
T1 construct: iASPP (human), proline rich (Pro) domain, residues 1-602 of the 828-residue protein, Swiss-Prot Q8WUF5; Cloned EcoRI/NotI into pHis parallel 2HLT; calculated Mw with tag 75.9 kDa; also called iASPP Pro 1-602; iASPP 1-602; source: E. coli Rosetta2, purified (Nickel Sepharose, size exclusion chromatography); not shown: HLT (His tag, lipoyl domain, TEV protease cleavage site), N-terminal, kept
T1 sequence (looked up): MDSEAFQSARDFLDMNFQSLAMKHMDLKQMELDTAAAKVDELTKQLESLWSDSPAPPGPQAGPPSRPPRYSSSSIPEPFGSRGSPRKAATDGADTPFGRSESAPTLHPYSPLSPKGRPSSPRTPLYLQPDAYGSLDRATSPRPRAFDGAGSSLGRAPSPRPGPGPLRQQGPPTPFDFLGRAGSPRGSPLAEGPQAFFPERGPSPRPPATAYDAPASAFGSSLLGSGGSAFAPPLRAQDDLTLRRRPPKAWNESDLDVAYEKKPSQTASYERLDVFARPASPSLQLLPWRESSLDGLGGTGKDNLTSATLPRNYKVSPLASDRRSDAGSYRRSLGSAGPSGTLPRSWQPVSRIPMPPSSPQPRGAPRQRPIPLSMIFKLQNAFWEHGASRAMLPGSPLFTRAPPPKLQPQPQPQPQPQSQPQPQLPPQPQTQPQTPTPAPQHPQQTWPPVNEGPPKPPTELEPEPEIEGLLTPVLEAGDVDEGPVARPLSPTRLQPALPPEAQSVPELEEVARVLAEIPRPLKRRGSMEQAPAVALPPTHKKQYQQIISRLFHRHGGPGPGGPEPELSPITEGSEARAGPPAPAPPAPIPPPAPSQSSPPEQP
Nature of the experiment: pull-down; Nickel-NTA beads loaded with HLT-iASPP Pro (1.7 uM), HLT (31 uM) or buffer, 1 h, 4 °C, 40 mM imidazole; then iASPP Ank-SH3 (80 ul of 80 uM, diluted in 1 ml 25 mM phosphate pH 7.0, 10% glycerol, 25 mM imidazole, 100 mM NaCl), 2 h, 4 °C; three washes; eluted by boiling in SDS; Coomassie-stained SDS-PAGE. The settings on record: both partners purified.

In the next experiment the target is T2, iASPP Ank-SH3 (Homo sapiens, UniProt Q8WUF5).
T2 construct: (2) iASPP Ank-SH3 603-828; HLT tag (His tag + lipoyl domain + TEV site) (N, cleaved yes); made in house; host or cells: E. coli HMS 174 (Novagen)
T2 sequence (Q8WUF5 603-828): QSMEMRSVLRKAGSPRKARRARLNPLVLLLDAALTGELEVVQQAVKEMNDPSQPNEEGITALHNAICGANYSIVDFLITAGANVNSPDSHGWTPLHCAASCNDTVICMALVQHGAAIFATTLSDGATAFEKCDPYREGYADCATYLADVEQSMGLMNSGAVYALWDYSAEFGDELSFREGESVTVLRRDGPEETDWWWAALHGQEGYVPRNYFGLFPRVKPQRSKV
Nature of the experiment: Nickel affinity pulldown of iASPP Ank-SH3 by HLT-iASPP Pro. It counts as binding. The settings on record: Nickel-NTA beads with HLT-iASPP Pro 1 h at 4 °C, then iASPP Ank-SH3 2 h at 4 °C; SDS-PAGE coomassie staining. The method, then:
After purifying the recombinant HLT-iASPP Pro and iASPP Ank-SH3 we tested whether the recombinant proteins interact using Nickel affinity pulldown assay. Nickel-NTA beads were incubated for one hour with HLT-iASPP Pro or with buffer or HLT alone. Then the beads were incubated with iASPP Ank-SH3 for two hours.
Figure 4 HLT-iASPP Pro interacts with iASPP Ank-SH3 in vitro. Nickel affinity pulldown of iASPP Ank-SH3 by HLT-iASPP Pro, SDS PAGE gel coomassie staining results. Nickel-NTA beads were incubated with HLT-iASPP Pro or with buffer or HLT fusion domain alone, for 1 h at 4 °C. The samples were centrifuged and then incubated with iASPP Ank-SH3 for 2 h at 4 °C. The samples were centrifuged again and the beads were washed 3 times. The beads were eluted by boiling them in SDS solution. Ank-SH3 eluted from the beads only in the presence of HLT-iASPP Pro.
30 μl Nickel-NTA beads (Qiagen) were incubated with: (1) 500 μl buffer C (50 mM Phosphate buffer pH = 7.0, 300 mM NaCl, 10% glycerol, 0.02% NaN3 and 0.001% Tween 20); (2) 250 μl 31 μM HLT; (3) 2 ml 1.7 μM HLT-iASPP Pro (in buffer C) for 1 hour with gentle mixing at 4 °C and in the presence of 40 mM imidazole. The samples were centrifuged (2 min 3500 RPM), and washed with buffer C (5 min, 4 °C, gentle mixing). […] Samples were analyzed on a 10% SDS-PAGE gel.

B1: iASPP Ank-SH3 (domain or fragment, human, UniProt Q8WUF5 603-828, looked up)
chain: QSMEMRSVLRKAGSPRKARRARLNPLVLLLDAALTGELEVVQQAVKEMNDPSQPNEEGITALHNAICGANYSIVDFLITAGANVNSPDSHGWTPLHCAASCNDTVICMALVQHGAAIFATTLSDGATAFEKCDPYREGYADCATYLADVEQSMGLMNSGAVYALWDYSAEFGDELSFREGESVTVLRRDGPEETDWWWAALHGQEGYVPRNYFGLFPRVKPQRSKV
notes: iASPP (human), four ankyrin repeats and SH3 domain, residues 603-828, Swiss-Prot Q8WUF5; also called iASPP Ank-SH3 603-828; cleaved iASPP Ank-SH3; source: E. coli HMS 174, purified (Nickel Sepharose, TEV cleavage, second Nickel column, size exclusion chromatography); not shown: HLT (His tag, lipoyl domain, TEV protease cleavage site), N-terminal, cleaved
As to B1, in the experiment with HLT-iASPP Pro, the binding result is on record as “binds”.

B2: HLT-iASPP Pro: recombinant iASPP Pro 1-602 with HLT (His-lipoyl domain-TEV) tag (protein)
chain: MDSEAFQSARDFLDMNFQSLAMKHMDLKQMELDTAAAKVDELTKQLESLWSDSPAPPGPQAGPPSRPPRYSSSSIPEPFGSRGSPRKAATDGADTPFGRSESAPTLHPYSPLSPKGRPSSPRTPLYLQPDAYGSLDRATSPRPRAFDGAGSSLGRAPSPRPGPGPLRQQGPPTPFDFLGRAGSPRGSPLAEGPQAFFPERGPSPRPPATAYDAPASAFGSSLLGSGGSAFAPPLRAQDDLTLRRRPPKAWNESDLDVAYEKKPSQTASYERLDVFARPASPSLQLLPWRESSLDGLGGTGKDNLTSATLPRNYKVSPLASDRRSDAGSYRRSLGSAGPSGTLPRSWQPVSRIPMPPSSPQPRGAPRQRPIPLSMIFKLQNAFWEHGASRAMLPGSPLFTRAPPPKLQPQPQPQPQPQSQPQPQLPPQPQTQPQTPTPAPQHPQQTWPPVNEGPPKPPTELEPEPEIEGLLTPVLEAGDVDEGPVARPLSPTRLQPALPPEAQSVPELEEVARVLAEIPRPLKRRGSMEQAPAVALPPTHKKQYQQIISRLFHRHGGPGPGGPEPELSPITEGSEARAGPPAPAPPAPIPPPAPSQSSPPEQP
modifications: left off: HLT (His tag, lipoyl domain, TEV protease cleavage site), N-terminal, kept
notes: recombinant iASPP Pro 1-602 with HLT (His-lipoyl domain-TEV) tag
For the molecule B2, the “pulldown of iASPP Ank-SH3” value with iASPP Ank-SH3 is “retrieved”.
